Experimental data from patent US20190077849A1.

Legend:
Test in all cases: cell-based or functional assay
[1] = biological target: HIV-1 Env of 6095.V1.C10.SG3 pseudovirus (clade ACD) (HIV-1)
[2] = biological target: HIV-1 Env of 6101.10.SG3 pseudovirus (clade B) (HIV-1)
[3] = biological target: HIV-1 Env of ZM106.9.SG3 pseudovirus (clade C) (HIV-1)
[4] = biological target: HIV-1 Env of KER2008.12.SG3 pseudovirus (clade A) (HIV-1)
[5] = biological target: HIV-1 Env of CNE31.SG3 pseudovirus (clade C) (HIV-1)
[6] = biological target: HIV-1 Env of PVO.04.SG3 pseudovirus (clade B) (HIV-1)
[7] = biological target: HIV-1 Env of TH966.8.SG3 pseudovirus (clade AE) (HIV-1)
[8] = biological target: HIV-1 Env of ZM215.8.SG3 pseudovirus (clade C) (HIV-1)
[9] = biological target: HIV-1 Env of YU2.DG.SG3 pseudovirus (clade B) (HIV-1) (UniProt P35961)

Chain of 10E8v4 S100cL (antibody) (VH): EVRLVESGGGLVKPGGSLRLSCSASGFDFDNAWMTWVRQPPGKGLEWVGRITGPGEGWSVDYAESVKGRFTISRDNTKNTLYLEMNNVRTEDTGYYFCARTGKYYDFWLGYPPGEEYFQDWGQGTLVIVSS
Chain of 10E8v4 S100cL (antibody) (VL): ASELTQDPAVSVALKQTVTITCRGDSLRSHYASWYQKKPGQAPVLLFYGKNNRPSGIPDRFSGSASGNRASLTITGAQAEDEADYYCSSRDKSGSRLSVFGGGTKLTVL
Chain of 10E8v4 S100cY (antibody) (VH): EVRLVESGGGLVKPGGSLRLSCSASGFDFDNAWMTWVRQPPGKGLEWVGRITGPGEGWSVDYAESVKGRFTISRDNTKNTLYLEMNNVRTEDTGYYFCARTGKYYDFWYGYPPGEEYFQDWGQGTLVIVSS
Chain of 10E8v4 S100cY (antibody) (VL): as the sequence (VL) above
Chain of 10E8v4 S100cR (antibody) (VH): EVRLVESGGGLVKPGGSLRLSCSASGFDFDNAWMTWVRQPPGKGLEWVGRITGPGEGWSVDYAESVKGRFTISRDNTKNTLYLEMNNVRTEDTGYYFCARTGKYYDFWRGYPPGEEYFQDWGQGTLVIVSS
Chain of 10E8v4 S100cR (antibody) (VL): as the sequence (VL) above

Substance | IC50, pseudovirus neutralization [1] [µg/mL] | IC80, pseudovirus neutralization [1] [µg/mL] | IC50, pseudovirus neutralization [2] [µg/mL] | IC80, pseudovirus neutralization [2] [µg/mL] | IC50, pseudovirus neutralization [3] [µg/mL] | IC80, pseudovirus neutralization [3] [µg/mL] | IC50, pseudovirus neutralization [4] [µg/mL] | IC80, pseudovirus neutralization [4] [µg/mL] | IC50, pseudovirus neutralization [5] [µg/mL] | IC80, pseudovirus neutralization [5] [µg/mL] | IC50, pseudovirus neutralization [6] [µg/mL] | IC80, pseudovirus neutralization [6] [µg/mL] | IC50, pseudovirus neutralization [7] [µg/mL] | IC80, pseudovirus neutralization [7] [µg/mL] | IC50, pseudovirus neutralization [8] [µg/mL] | IC80, pseudovirus neutralization [8] [µg/mL] | IC50, pseudovirus neutralization [9] [µg/mL] | IC80, pseudovirus neutralization [9] [µg/mL]
10E8v4 S100cL (antibody) | 0.001 | 0.002 | 0.007 | 0.049 | > 50 | > 50 | > 50 | > 50 | 0.354 | 1.01 | 0.507 | 2.21 | 0.011 | 0.079 | 0.015 | 0.095 | 0.333 | 1.75
10E8v4 S100cR (antibody) | 0.011 | 0.048 | 0.176 | 0.891 | > 50 | > 50 | > 50 | > 50 | 2.54 | 8.42 | 6.45 | 25 | 0.168 | 0.648 | 0.363 | 1.34 | 3.87 | 12
10E8v4 S100cY (antibody) | 0.001 | 0.006 | 0.009 | 0.063 | > 50 | > 50 | > 50 | > 50 | 0.368 | 1.39 | 0.412 | 3.44 | 0.011 | 0.075 | 0.028 | 0.129 | 0.376 | 2.25
